Key:
HeLa Kyoto [1] = test: melting temperature (median over replicates), in situ; higher = more thermally stable
HeLa Kyoto [2] = test: solubility in G1/S (NP-40 vs SDS abundance) (log2 ratio); higher = more soluble; conditions: cell cycle stage: G1/S
HeLa Kyoto [3] = test: thermal stability score vs G1/S (z-score of summed log2 fold changes over temperatures); higher = more thermally stable than in G1/S
HeLa Kyoto [4] = test: solubility change mitosis vs G1/S (difference of NP-40 vs SDS log2 ratios) (log2 ratio difference); higher = more soluble in mitosis
[5] = cell cycle stage: early G1 (4.5 h after nocodazole release)
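Wherever melting temperature (median over replicates), in situ is given: HeLa Kyoto cells synchronized by double thymidine or nocodazole block, proteins quantified by TMT10plex mass spectrometry, three independent biological replicates.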
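Wherever solubility change mitosis vs G1/S (difference of NP-40 vs SDS log2 ratios) is given: synchronized HeLa Kyoto cells (double thymidine block for G1/S, nocodazole release for mitosis), protein amounts in NP-40 versus SDS lysates quantified by mass spectrometry, three biological replicates.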
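Wherever solubility in G1/S (NP-40 vs SDS abundance) is given: HeLa Kyoto cells arrested at G1/S by double thymidine block, proteins quantified by TMT10plex mass spectrometry in mild NP-40 versus SDS extracts, three biological replicates.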
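Wherever thermal stability score vs G1/S (z-score of summed log2 fold changes over temperatures) is given: synchronized HeLa Kyoto cells, proteins quantified by TMT10plex mass spectrometry, three biological replicates, mitosis taken 0.5 h after nocodazole release, G1/S directly after double thymidine block.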

Chain of SLC7A1 (chain, as listed by the source): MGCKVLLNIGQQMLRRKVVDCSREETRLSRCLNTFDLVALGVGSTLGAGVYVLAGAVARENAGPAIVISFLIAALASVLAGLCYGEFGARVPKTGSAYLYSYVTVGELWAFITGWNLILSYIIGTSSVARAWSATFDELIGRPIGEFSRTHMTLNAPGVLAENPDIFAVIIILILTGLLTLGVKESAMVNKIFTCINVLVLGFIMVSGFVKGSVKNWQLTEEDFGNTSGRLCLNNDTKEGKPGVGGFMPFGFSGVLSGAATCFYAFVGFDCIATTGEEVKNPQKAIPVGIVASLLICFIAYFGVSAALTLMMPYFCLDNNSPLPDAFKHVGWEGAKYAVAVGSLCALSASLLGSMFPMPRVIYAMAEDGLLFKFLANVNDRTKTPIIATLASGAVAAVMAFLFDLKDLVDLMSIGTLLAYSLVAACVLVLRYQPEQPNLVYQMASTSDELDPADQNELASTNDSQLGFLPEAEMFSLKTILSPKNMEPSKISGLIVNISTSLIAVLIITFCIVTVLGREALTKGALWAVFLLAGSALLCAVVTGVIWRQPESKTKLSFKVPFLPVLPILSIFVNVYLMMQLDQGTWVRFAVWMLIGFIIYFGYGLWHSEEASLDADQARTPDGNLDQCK
Chain of VPRBP (chain, as listed by the source): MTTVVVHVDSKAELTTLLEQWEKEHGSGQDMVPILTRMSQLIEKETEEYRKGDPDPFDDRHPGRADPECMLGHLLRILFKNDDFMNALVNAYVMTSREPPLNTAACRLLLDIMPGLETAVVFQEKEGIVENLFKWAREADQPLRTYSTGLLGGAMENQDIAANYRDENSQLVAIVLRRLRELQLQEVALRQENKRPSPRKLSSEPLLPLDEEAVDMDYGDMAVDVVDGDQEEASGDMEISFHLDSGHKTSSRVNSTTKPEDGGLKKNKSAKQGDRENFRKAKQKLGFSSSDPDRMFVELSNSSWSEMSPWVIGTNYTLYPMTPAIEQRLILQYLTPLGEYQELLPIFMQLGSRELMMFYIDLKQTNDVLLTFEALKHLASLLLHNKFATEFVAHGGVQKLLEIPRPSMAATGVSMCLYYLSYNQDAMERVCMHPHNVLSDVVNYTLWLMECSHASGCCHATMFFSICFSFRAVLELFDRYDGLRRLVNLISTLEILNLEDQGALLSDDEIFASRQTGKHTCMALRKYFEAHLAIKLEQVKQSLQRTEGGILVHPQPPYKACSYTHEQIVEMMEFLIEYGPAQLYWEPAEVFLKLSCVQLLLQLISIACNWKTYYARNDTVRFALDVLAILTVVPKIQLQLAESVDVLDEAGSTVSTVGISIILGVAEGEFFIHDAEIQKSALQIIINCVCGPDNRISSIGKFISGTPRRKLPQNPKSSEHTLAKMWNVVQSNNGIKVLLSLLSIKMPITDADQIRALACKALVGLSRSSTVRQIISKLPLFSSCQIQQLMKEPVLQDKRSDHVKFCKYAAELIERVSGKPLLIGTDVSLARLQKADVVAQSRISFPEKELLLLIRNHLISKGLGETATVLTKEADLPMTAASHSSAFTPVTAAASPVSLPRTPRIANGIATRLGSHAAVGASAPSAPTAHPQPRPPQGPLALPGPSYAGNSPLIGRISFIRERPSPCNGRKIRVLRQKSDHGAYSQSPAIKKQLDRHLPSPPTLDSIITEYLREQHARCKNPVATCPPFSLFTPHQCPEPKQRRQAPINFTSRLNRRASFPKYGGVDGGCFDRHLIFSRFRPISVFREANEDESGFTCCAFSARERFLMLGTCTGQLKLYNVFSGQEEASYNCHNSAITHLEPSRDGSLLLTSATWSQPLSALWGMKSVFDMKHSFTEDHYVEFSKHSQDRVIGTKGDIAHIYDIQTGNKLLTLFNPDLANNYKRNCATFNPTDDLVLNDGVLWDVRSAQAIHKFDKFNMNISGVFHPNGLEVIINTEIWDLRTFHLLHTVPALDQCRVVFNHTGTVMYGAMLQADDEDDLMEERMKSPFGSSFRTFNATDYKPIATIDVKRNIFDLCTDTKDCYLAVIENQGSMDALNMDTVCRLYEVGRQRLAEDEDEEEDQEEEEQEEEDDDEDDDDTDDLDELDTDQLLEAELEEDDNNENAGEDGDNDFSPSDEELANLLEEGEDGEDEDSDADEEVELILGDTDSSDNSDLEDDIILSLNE

| Substance | melting temperature (HeLa Kyoto [1]; cell cycle stage: G1/S) | melting temperature (HeLa Kyoto [1]; cell cycle stage: mitosis) | solubility in G1/S (log2) (HeLa Kyoto [2]) | thermal stability score (HeLa Kyoto [3]; [5]) | thermal stability score (HeLa Kyoto [3]; cell cycle stage: mitosis) | solubility change mitosis (log2) (HeLa Kyoto [4]) |
| --- | --- | --- | --- | --- | --- | --- |
| MSWESGAGPGLGSQGMDLVWSAWYGKCVKGKGSLPLSAHGIVVAWLSRAEWDQVTVYLFCDDHKLQRYALNRITVWRSRSGNELPLAVASTADLIRCKLLDVTGGLGTDELRLLYGMALVRFVNLISERKTKFAKVPLKCLAQEVNIPDWIVDLRHELTHKKMPHINDCRRGCYFVLDWLQKTYWCRQLENSLRETWELEEFREGIEEEDQEEDKNIVVDDITEQKPEPQDDGKSTESDVKADGDSKGSEEVDSHCKKALSHKELYERARELLVSYEEEQFTVLEKFRYLPKAIKAWNNPSPRVECVLAELKGVTCENREAVLDAFLDDGFLVPTFEQLAALQIEYEDGQTEVQRGEGTDPKSHKNVDLNDVLVPKPFSQFWQPLLRGLHSQNFTQALLERMLSELPALGISGIRPTYILRWTVELIVANTKTGRNARRFSAGQWEARRGWRLFNCSASLDWPRMVESCLGSPCWASPQLLRIIFKAMGQGLPDEEQEKLLRICSIYTQSGENSLVQEGSEASPIGKSPYTLDSLYWSVKPASSSFGSEAKAQQQEEQGSVNDVKEEEKEEKEVLPDQVEEEEENDDQEEEEEDEDDEDDEEEDRMEVGPFSTGQESPTAENARLLAQKRGALQGSAWQVSSEDVRWDTFPLGRMPGQTEDPAELMLENYDTMYLLDQPVLEQRLEPSTCKTDTLGLSCGVGSGNCSNSSSSNFEGLLWSQGQLHGLKTGLQLF [LAS1L] | 49.7 °C | 51 °C | -1.4 | 1.98 | 2.81 | 0.658 |
| SLC7A1 | 61.5 °C | 60.9 °C | -0.215 | -2.64 | -4.52 | -0.171 |
| MSVRVARVAWVRGLGASYRRGASSFPVPPPGAQGVAELLRDATGAEEEAPWAATERRMPGQCSVLLFPGQGSQVVGMGRGLLNYPRVRELYAAARRVLGYDLLELSLHGPQETLDRTVHCQPAIFVASLAAVEKLHHLQPSVIENCVAAAGFSVGEFAALVFAGAMEFAEGLYAVKIRAEAMQEASEAVPSGMLSVLGQPQSKFNFACLEAREHCKSLGIENPVCEVSNYLFPDCRVISGHQEALRFLQKNSSKFHFRRTRMLPVSGAFHTRLMEPAVEPLTQALKAVDIKKPLVSVYSNVHAHRYRHPGHIHKLLAQQLVSPVKWEQTMHAIYERKKGRGFPQTFEVGPGRQLGAILKSCNMQAWKSYSAVDVLQTLEHVDLDPQEPPR [MCAT] | 53.7 °C | 54.9 °C | 0.3 | -1.29 | -2.74 | -0.00154 |
| IMPDH1 | 51.1 °C | 51.6 °C | 0.0289 | 5.12 | 3.19 | -0.176 |
| MEATGVLPFVRGVDLSGNDFKGGYFPENVKAMTSLRWLKLNRTGLCYLPEELAALQKLEHLSVSHNNLTTLHGELSSLPSLRAIVARANSLKNSGVPDDIFKLDDLSVLDLSHNQLTECPRELENAKNMLVLNLSHNSIDTIPNQLFINLTDLLYLDLSENRLESLPPQMRRLVHLQTLVLNGNPLLHAQLRQLPAMTALQTLHLRSTQRTQSNLPTSLEGLSNLADVDLSCNDLTRVPECLYTLPSLRRLNLSSNQITELSLCIDQWVHVETLNLSRNQLTSLPSAICKLSKLKKLYLNSNKLDFDGLPSGIGKLTNLEEFMAANNNLELVPESLCRCPKLRKLVLNKNHLVTLPEAIHFLTEIEVLDVRENPNLVMPPKPADRAAEWYNIDFSLQNQLRLAGASPATVAAAAAAGSGPKDPMARKMRLRRRKDSAQDDQAKQVLKGMSDVAQEKNKKQEESADARAPSGKVRRWDQGLEKPRLDYSEFFTEDVGQLPGLTIWQIENFVPVLVEEAFHGKFYEADCYIVLKTFLDDSGSLNWEIYYWIGGEATLDKKACSAIHAVNLRNYLGAECRTVREEMGDESEEFLQVFDNDISYIEGGTASGFYTVEDTHYVTRMYRVYGKKNIKLEPVPLKGTSLDPRFVFLLDRGLDIYVWRGAQATLSSTTKARLFAEKINKNERKGKAEITLLVQGQELPEFWEALGGEPSEIKKHVPEDFWPPQPKLYKVGLGLGYLELPQINYKLSVEHKQRPKVELMPRMRLLQSLLDTRCVYILDCWSDVFIWLGRKSPRLVRAAALKLGQELCGMLHRPRHATVSRSLEGTEAQVFKAKFKNWDDVLTVDYTRNAEAVLQSPGLSGKVKRDAEKKDQMKADLTALFLPRQPPMSLAEAEQLMEEWNEDLDGMEGFVLEGKKFARLPEEEFGHFYTQDCYVFLCRYWVPVEYEEEEKKEDKEEKAEGKEGEEATAEAEEKQPEEDFQCIVYFWQGREASNMGWLTFTFSLQKKFESLFPGKLEVVRMTQQQENPKFLSHFKRKFIIHRGKRKAVQGAQQPSLYQIRTNGSALCTRCIQINTDSSLLNSEFCFILKVPFESEDNQGIVYAWVGRASDPDEAKLAEDILNTMFDTSYSKQVINEGEEPENFFWVGIGAQKPYDDDAEYMKHTRLFRCSNEKGYFAVTEKCSDFCQDDLADDDIMLLDNGQEVYMWVGTQTSQVEIKLSLKACQVYIQHMRSKEHERPRRLRLVRKGNEQHAFTRCFHAWSAFCKALA [FLII] | 49.5 °C | 49.5 °C | -0.172 | -0.0623 | 0.353 | -0.0947 |
| CXORF56 | 50.6 °C | 51.3 °C | -0.0564 | -1.87 | -1.28 | 0.1 |
| MWSEGRYEYERIPRERAPPRSHPSDGYNRLVNIVPKKPPLLDRPGEGSYNRYYSHVDYRDYDEGRSFSHDRRSGPPHRGDESGYRWTRDDHSASRQPEYRDMRDGFRRKSFYSSHYARERSPYKRDNTFFRESPVGRKDSPHSRSGSSVSSRSYSPERSKSYSFHQSQHRKSVRPGASYKRQNEGNPERDKERPVQSLKTSRDTSPSSGSAVSSSKVLDKPSRLTEKELAEAASKWAAEKLEKSDESNLPEISEYEAGSTAPLFTDQPEEPESNTTHGIELFEDSQLTTRSKAIASKTKEIEQVYRQDCETFGMVVKMLIEKDPSLEKSIQFALRQNLHEIESAGQTWQQVPPVRNTEMDHDGTPENEGEETAQSAPQPPQAPQPLQPRKKRVRRTTQLRRTTGAPDITWGMLKKTTQEAERILLRTQTPFTPENLFLAMLSVVHCNSRKDVKPENKQ [PPHLN1] | 52.2 °C | 50.4 °C | -0.763 | 0.616 | 1.63 | 0.849 |
| MEDYLQGCRAALQESRPLHVVLGNEACDLDSTVSALALAFYLAKTTEAEEVFVPVLNIKRSELPLRGDIVFFLQKVHIPESILIFRDEIDLHALYQAGQLTLILVDHHILSKSDTALEEAVAEVLDHRPIEPKHCPPCHVSVELVGSCATLVTERILQGAPEILDRQTAALLHGTIILDCVNMDLKIGKATPKDSKYVEKLEALFPDLPKRNDIFDSLQKAKFDVSGLTTEQMLRKDQKTIYRQGVKVAISAIYMDLEAFLQRSNLLADLHAFCQAHSYDVLVAMTIFFNTHNEPVRQLAIFCPHVALQTTICEVLERSHSPPLKLTPASSTHPNLHAYLQGNTQVSRKKLLPLLQEALSAYFDSMKIPSGQPETADVSREQVDKELDRASNSLISGLSQDEEDPPLPPTPMNSLVDECPLDQGLPKLSAEAVFEKCSQISLSQSTTASLSKK [PRUNE] | 50.3 °C | 49.6 °C | 0.182 | 0.764 | 0.775 | -0.0758 |
| MACLLETPIRMSVLSEVTASSRHYVDRLFDPDPQKVLQGVIDMKNAVIGNNKQKANLIVLGAVPRLLYLLQQETSSTELKTECAVVLGSLAMGTENNVKSLLDCHIIPALLQGLLSPDLKFIEACLRCLRTIFTSPVTPEELLYTDATVIPHLMALLSRSRYTQEYICQIFSHCCKGPDHQTILFNHGAVQNIAHLLTSLSYKVRMQALKCFSVLAFENPQVSMTLVNVLVDGELLPQIFVKMLQRDKPIEMQLTSAKCLTYMCRAGAIRTDDNCIVLKTLPCLVRMCSKERLLEERVEGAETLAYLIEPDVELQRIASITDHLIAMLADYFKYPSSVSAITDIKRLDHDLKHAHELRQAAFKLYASLGANDEDIRKKIIETENMMDRIVTGLSESSVKVRLAAVRCLHSLSRSVQQLRTSFQDHAVWKPLMKVLQNAPDEILVVASSMLCNLLLEFSPSKEPILESGAVELLCGLTQSENPALRVNGIWALMNMAFQAEQKIKADILRSLSTEQLFRLLSDSDLNVLMKTLGLLRNLLSTRPHIDKIMSTHGKQIMQAVTLILEGEHNIEVKEQTLCILANIADGTTAKDLIMTNDDILQKIKYYMGHSHVKLQLAAMFCISNLIWNEEEGSQERQDKLRDMGIVDILHKLSQSPDSNLCDKAKMALQQYLA [ARMC8] | 51.1 °C | 51 °C | -0.0698 | -0.497 | 0.122 | -0.195 |
| VPRBP | 50.8 °C | 50.6 °C | -0.225 | -0.576 | -0.973 | -0.0867 |
| MDSRYNSTAGIGDLNQLSAAIPATRVEVSVSCRNLLDRDTFSKSDPICVLYVQGVGNKEWREFGRTEVIDNTLNPDFVRKFILDYFFEERENLRFDLYDVDSKSPNLSKHDFLGQVFCTLGEIVGSQGSRLEKPIVGIPGKKCGTIILTAEELNCCRDAVLMQFCANKLDKKDFFGKSDPFLVFYRSNEDGSFTICHKTEVVKNTLNPVWQAFKISVRALCNGDYDRTIKVEVYDWDRDGSHDFIGEFTTSYRELSRGQSQFNVYEVVNPKKKGKKKKYTNSGTVTLLSFLVETEVSFLDYIKGGTQINFTVAIDFTASNGNPAQPTSLHYMNPYQLNAYGMALKAVGEIVQDYDSDKMFPALGFGAKLPPDGRISHEFALNGNPQNPYCDGIEGVMEAYYRSLKSVQLYGPTNFAPVINHVARYASSVKDGSQYFVLLIVTDGVISDMAQTKESIVNASKLPMSIIIVGVGPAEFDAMVELDGDDVRVSSRGKYAERDIVQFVPFRDYIDRSGNHILSMARLAKDVLAEIPEQFLSYMRARGIKPSPAPPPYTPPTHVLQTQI [CPNE8] | 54.1 °C | 53 °C | -1.4 | 1.74 | 5.6 | -0.135 |
| MRLLPRLLLLLLLVFPATVLFRGGPRGLLAVAQDLTEDEETVEDSIIEDEDDEAEVEEDEPTDLVEDKEEEDVSGEPEASPSADTTILFVKGEDFPANNIVKFLVGFTNKGTEDFIVESLDASFRYPQDYQFYIQNFTALPLNTVVPPQRQATFEYSFIPAEPMGGRPFGLVINLNYKDLNGNVFQDAVFNQTVTVIEREDGLDGETIFMYMFLAGLGLLVIVGLHQLLESRKRKRPIQKVEMGTSSQNDVDMSWIPQETLNQINKASPRRLPRKRAQKRSVGSDE [SSR1] | 57.4 °C | 58.8 °C | 0.474 | 0.9 | 0.359 | 0.0174 |
| MGTQKVTPALIFAITVATIGSFQFGYNTGVINAPEKIIKEFINKTLTDKGNAPPSEVLLTSLWSLSVAIFSVGGMIGSFSVGLFVNRFGRRNSMLIVNLLAVTGGCFMGLCKVAKSVEMLILGRLVIGLFCGLCTGFVPMYIGEISPTALRGAFGTLNQLGIVVGILVAQIFGLEFILGSEELWPLLLGFTILPAILQSAALPFCPESPRFLLINRKEEENAKQILQRLWGTQDVSQDIQEMKDESARMSQEKQVTVLELFRVSSYRQPIIISIVLQLSQQLSGINAVFYYSTGIFKDAGVQEPIYATIGAGVVNTIFTVVSLFLVERAGRRTLHMIGLGGMAFCSTLMTVSLLLKDNYNGMSFVCIGAILVFVAFFEIGPGPIPWFIVAELFSQGPRPAAMAVAGCSNWTSNFLVGLLFPSAAHYLGAYVFIIFTGFLITFLAFTFFKVPETRGRTFEDITRAFEGQAHGADRSGKDGVMEMNSIEPAKETTTNV [SLC2A3] | 62.7 °C | 59.1 °C | -0.0807 | -2.61 | -5.18 | -0.0464 |
| MSLQWTAVATFLYAEVFVVLLLCIPFISPKRWQKIFKSRLVELLVSYGNTFFVVLIVILVLLVIDAVREIRKYDDVTEKVNLQNNPGAMEHFHMKLFRAQRNLYIAGFSLLLSFLLRRLVTLISQQATLLASNEAFKKQAESASEAAKKYMEENDQLKKGAAVDGGKLDVGNAEVKLEEENRSLKADLQKLKDELASTKQKLEKAENQVLAMRKQSEGLTKEYDRLLEEHAKLQAAVDGPMDKKEE [BCAP31] | 55.5 °C | 55.5 °C | 0.132 | -4.24 | -4.65 | -0.101 |

Reference: the supplement of paper PMC5998384
